Biological target: T1, Interferon regulatory factor 3 (human (endogenous in A375)), Q14653
T1 chain: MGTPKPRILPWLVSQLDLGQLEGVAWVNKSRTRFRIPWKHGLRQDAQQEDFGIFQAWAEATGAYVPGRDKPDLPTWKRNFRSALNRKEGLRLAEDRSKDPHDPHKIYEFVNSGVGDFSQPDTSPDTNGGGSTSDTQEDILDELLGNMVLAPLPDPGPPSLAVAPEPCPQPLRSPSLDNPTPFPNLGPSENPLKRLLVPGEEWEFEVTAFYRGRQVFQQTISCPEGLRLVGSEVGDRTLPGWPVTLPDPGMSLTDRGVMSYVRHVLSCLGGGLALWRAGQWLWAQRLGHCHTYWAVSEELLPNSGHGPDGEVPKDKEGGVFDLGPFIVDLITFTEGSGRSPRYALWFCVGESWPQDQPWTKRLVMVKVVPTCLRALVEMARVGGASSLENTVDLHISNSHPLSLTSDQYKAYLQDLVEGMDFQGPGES
Assay: cross-linking; covalent cross-link formed in cells (TG2-dependent), seen by Western blot of SDS-polyacrylamide gels under denaturing conditions; A375 cells treated with doxorubicin 5 μM for 6, 16 and 24 h; HeLa cells too
Conditions: remark: other sources report otherwise

stoichiometry N: 2
B1: Interferon regulatory factor 3, Q14653 1-427 (natural protein)
chain: T1 chain
